For one substance, radio-isotope signal results are on record in patent US20210214418A1.

This assay deals with chemokine receptor CXCR5 (overexpressed on CXCR5-CAR T cells) (UniProt P32302). In words: cell-based or functional assay.
UniProt P32302, sequence (P32302 whole entry): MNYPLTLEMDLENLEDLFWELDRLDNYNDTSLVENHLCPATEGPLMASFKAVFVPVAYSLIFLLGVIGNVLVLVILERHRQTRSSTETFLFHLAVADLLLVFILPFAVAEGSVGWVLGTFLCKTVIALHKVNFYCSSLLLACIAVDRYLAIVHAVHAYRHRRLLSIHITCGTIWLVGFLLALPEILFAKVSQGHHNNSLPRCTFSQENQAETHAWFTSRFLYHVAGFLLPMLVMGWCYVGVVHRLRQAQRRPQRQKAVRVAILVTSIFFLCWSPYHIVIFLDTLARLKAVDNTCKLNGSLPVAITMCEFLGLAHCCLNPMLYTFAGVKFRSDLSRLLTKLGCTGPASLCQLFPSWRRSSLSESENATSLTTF

Turning to “CXCL13 stably transfected in A549 cells (A549-CXCL13) (from UniProt O43927 23-109) (ligand)”, the radio-isotope signal at the CXCL13 positive tumor site, EGFR-CXCR5-CAR compared with EGFR-CAR, 72 h came out at 3 fold and the radio-isotope signal at the CXCL13 positive tumor site, EGFR-CXCR5-CAR compared with EGFR-CAR, 168 h was determined as 7 fold.
